Measurements as given in the supplement of paper PMC10724198.
± gives the standard deviation of the averaged measurements.

Columns and labels:
Saccharomyces cerevisiae [1] = assay: protein stability index of tFT-peptide fusion (C-terminal peptide) (PSI (0-1 scale)); higher = more stable (slower turnover)
Experimental: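 MPS profiling in S. cerevisiae of the tFT-X12 degron library: putative degron peptides plus stable controls, 12 aa, fused to the C-terminus of a sfGFP-mCherry timer. Cells are FACS-sorted into 8 mCherry/sfGFP bins and deep-sequenced. PSI runs from 0 (unstable) to 1 (stable). Backgrounds are wild type, das1Δ and doa10Δ at 30 °C, and wild type, das1Δ, cdc34-1 and cdc53-1 at 37 °C; 2-3 technical replicates each.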

Saccharomyces cerevisiae [2] = assay: as above; settings: genetic background: wild type; temperature: 30 C
[3] = genetic background: cdc34-1, temperature: 37 C
[4] = genetic background: cdc53-1, temperature: 37 C
[5] = genetic background: das1 deletion, temperature: 30 C
[6] = genetic background: das1 deletion, temperature: 37 C
[7] = genetic background: doa10 deletion, temperature: 30 C
[8] = genetic background: wild type, temperature: 30 C
[9] = genetic background: wild type, temperature: 37 C
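Further: PSI is a weighted mean of sequencing reads over stability bins, variants kept only with over 10 reads, mCherry proximal and sfGFP distal, peptide attached via GGGS linker.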

Sequence	protein stability index (Saccharomyces cerevisiae [1]; [3])	protein stability index (Saccharomyces cerevisiae [1]; [4])	protein stability index (Saccharomyces cerevisiae [1]; [5])	protein stability index (Saccharomyces cerevisiae [1]; [6])	protein stability index (Saccharomyces cerevisiae [1]; [7])	protein stability index (Saccharomyces cerevisiae [1]; [8])	protein stability index (Saccharomyces cerevisiae [1]; [9])	protein stability index (Saccharomyces cerevisiae [2])
VWCVFHVWSGRL	0.49 ± 0.035	0.585 ± 0.016	0.42 ± 0.023	0.6175 ± 0.0012	0.38 ± 0.007	0.409 ± 0.018	0.58 ± 0.012	0.494 ± 0.029
SRVGAGVVRGVG	0.481 ± 0.031	0.534 ± 0.015	0.498 ± 0.007	0.5403 ± 0.0051	0.512 ± 0.011	0.493 ± 0.012	0.5391 ± 0.0031	0.488 ± 0.038
ALFLYNCVVVTD	0.0493 ± 0.0086	0.137 ± 0.018	0.146 ± 0.04	0.25 ± 0.015	0.132 ± 0.011	0.143 ± 0.045	0.188 ± 0.056	0.136 ± 0.0097
CSRDVFLFIKFL	0.391 ± 0.023	0.544 ± 0.018	0.457 ± 0.0096	0.5679 ± 0.002	0.0736 ± 0.035	0.075 ± 0.019	0.127 ± 0.037	0.132 ± 0.02
GGGSASGWRAAA	0.665 ± 0.0097	0.735 ± 0.015	0.633 ± 0.0096	0.716 ± 0.027	0.344 ± 0.0043	0.39 ± 0.022	0.639 ± 0.0072	0.48 ± 0.025
ISPCLVRLWYRI	0.462 ± 0.053	0.574 ± 0.021	0.544 ± 0.018	0.673 ± 0.019	0.103 ± 0.028	0.102 ± 0.037	0.168 ± 0.026	0.175 ± 0.033
CLILGLFSLIFL	0.525 ± 0.061	0.5644 ± 0.00097	0.452 ± 0.018	0.561 ± 0.011	0.4758 ± 0.0028	0.441 ± 0.016	0.531 ± 0.056	0.482 ± 0.027
GTRREFVILYLF	0.544 ± 0.026	0.675 ± 0.027	0.525 ± 0.016	0.694 ± 0.035	0.119 ± 0.0081	0.133 ± 0.035	0.101 ± 0.019	0.191 ± 0.0076
VVTFLCPLVGHV	0.527 ± 0.023	0.501 ± 0.0074	0.372 ± 0.029	0.546 ± 0.012	0.341 ± 0.017	0.381 ± 0.013	0.507 ± 0.028	0.478 ± 0.019
WLSWATRRIVLG	0.552 ± 0.037	0.611 ± 0.019	0.57 ± 0.02	0.605 ± 0.018	0.384 ± 0.008	0.401 ± 0.013	0.527 ± 0.012	0.47 ± 0.031
IGWKLNRIQKNI	0.6858 ± 0.0052	0.735 ± 0.043	0.649 ± 0.028	0.728 ± 0.047	0.15 ± 0.021	0.193 ± 0.029	0.436 ± 0.011	0.326 ± 0.021
SPWSIHLILLQV	0.209 ± 0.016	0.312 ± 0.0012	0.265 ± 0.033	0.438 ± 0.018	0.1894 ± 0.00096	0.203 ± 0.029	0.36 ± 0.034	0.318 ± 0.025
GPTLLVSRIAVI	0.506 ± 0.026	0.517 ± 0.024	0.368 ± 0.039	0.565 ± 0.011	0.137 ± 0.0051	0.162 ± 0.021	0.291 ± 0.015	0.249 ± 0.011
SHPAPPSPPPSP	0.618 ± 0.078	0.676 ± 0.0076	0.384 ± 0.025	0.537 ± 0.014	0.363 ± 0.0086	0.391 ± 0.025	0.534 ± 0.0059	0.413 ± 0.0094
CTESVYIIRFML	0.638 ± 0.045	0.661 ± 0.025	0.568 ± 0.025	0.662 ± 0.02	0.222 ± 0.003	0.253 ± 0.035	0.466 ± 0.029	0.341 ± 0.084
LYRSLLLSFCVL	0.593 ± 0.023	0.6381 ± 0.00019	0.528 ± 0.011	0.639 ± 0.018	0.407 ± 0.031	0.411 ± 0.022	0.521 ± 0.012	0.483 ± 0.0052
WGEAGRPAGRGA	0.703 ± 0.032	0.758 ± 0.026	0.631 ± 0.007	0.745 ± 0.018	0.644 ± 0.017	0.6506 ± 0.004	0.73024 ± 1.3e-05	0.688 ± 0.039
SRKRIVALMLSG	0.628 ± 0.012	0.678 ± 0.061	0.615 ± 0.029	0.686 ± 0.032	0.153 ± 0.013	0.18 ± 0.02	0.273 ± 0.0082	0.292 ± 0.013
GFSPLFVLVFGV	0.47 ± 0.012	0.486 ± 0.024	0.312 ± 0.027	0.518 ± 0.012	0.333 ± 0.016	0.311 ± 0.013	0.489 ± 0.011	0.4261 ± 0.0035
CRLLVFGLCVGA	0.292 ± 0.012	0.332 ± 0.0083	0.228 ± 0.046	0.419 ± 0.0084	0.189 ± 0.0062	0.237 ± 0.022	0.39 ± 0.0056	0.342 ± 0.014
VWVVRGFLGFGG	0.532 ± 0.068	0.526 ± 0.029	0.4302 ± 0.0014	0.457 ± 0.012	0.437 ± 0.0075	0.438 ± 0.014	0.4411 ± 0.00055	–
VGFCICISIMSF	0.0373 ± 0.016	0.109 ± 0.025	0.125 ± 0.025	0.214 ± 0.023	0.09907 ± 0.00077	0.108 ± 0.031	0.209 ± 0.027	0.213 ± 0.046
VLCFFWWWCRVC	0.4 ± 0.021	0.525 ± 0.038	0.472 ± 0.019	0.583 ± 0.044	0.353 ± 0.02	0.324 ± 0.035	0.4133 ± 0.001	0.43 ± 0.017
SVLAIWLTVTLK	0.0666 ± 0.029	0.0696 ± 0.029	0.146 ± 0.016	0.197 ± 0.0027	0.0915 ± 0.023	0.0938 ± 0.034	0.139 ± 0.0076	0.145 ± 0.0018
IGYLGSELRFVS	0.688 ± 0.094	0.741 ± 0.011	0.626 ± 0.0078	0.762 ± 0.018	0.384 ± 0.017	0.434 ± 0.04	0.69 ± 0.012	0.514 ± 0.037
RRGLIFFLCCPA	0.38308 ± 5.8e-05	0.4335 ± 0.0019	0.336 ± 0.027	0.472 ± 0.013	0.31 ± 0.0072	0.332 ± 0.039	0.432 ± 0.011	0.466 ± 0.053
SILFSYFCFFLL	0.523 ± 0.027	0.545 ± 0.019	0.441 ± 0.031	0.586 ± 0.014	0.274 ± 0.0065	0.273 ± 0.028	0.443 ± 0.0077	0.356 ± 0.01
